Test results published in publication PMC4701952.

Target: AG^(74-173) (A. thaliana) (UniProt P17839)
Test: SAXS with on-line SEC; Superdex 75 3.2/300 PC on-line at ESRF BM29, 0.1 ml/min, room temperature, 30 mM Tris pH 8.0, 300 mM NaCl, 1 mM TCEP, 5% glycerol; mass from correlated volume and Porod volume; self-association

Chain of AG^(74-173) (P17839 74-173): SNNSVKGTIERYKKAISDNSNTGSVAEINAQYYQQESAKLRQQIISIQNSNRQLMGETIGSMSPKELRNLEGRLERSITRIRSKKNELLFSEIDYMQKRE

AG^(74-173) (from UniProt P17839 74-173) (domain or fragment)
stoichiometry N: 2
